According to the DeepSol protein solubility set:

Test: soluble on expression in E. coli; label from the status in PepcDB or PDB records

Row | Sequence | soluble on expression in E. coli
1 | MGSDKIHHHHHHMDGHRLIQPLHARTADVGGIPVNRVMPQRGRRLIGAWCFLDHAGPATFTVGAGGMRVGSHPHIGLQTFTWMLAGEIMHHDSLGNAQRIRPGELNLMTAGRGIAHTEESILESGQLHAAQLWITLPHATRHTSPRFDHYPDLPRWSEQGTDVTLLRGDFQGREAPTHAFSPLVGLDIVSPDATQLTLPARTDFEYGVLLLEGSLTIERDRFDTNEMAYLGSGLDEITLAMEAGTRALMLGGEPLNEDILIWWNFVGHSKAEIAEAQKEWEEWEAGSDRFGDVPEFDGERIMPPPIPWKVTAN | not soluble
2 | MEMFKMSREMLQLAEALASEKNVDAEVVFQALEFALSTAAKKKADREHMDVRVQINRDTGEYQTFRRWLIVADEDYTYPDVEKTIEEIQEEIPDTTIQIGEYYEEQLPNEGFGRQAAQTAKQIILQRIRDAEREQNLNEFLAVKEDIVSGTVKRVERHGIIVEVVAGKLDALIPRDQMIPRENFRSGDRIRALFLRVEEIGNTGRKQIILSRTSGDFLVKLYANEVPEIADGMLEIRAVARDPGQRAKVAVKANDQRIDPQGTCIGVRGSRVNAVSNELSGERIDVVLWSPEPAQFVMSALSPAEVSRIVIDEDKHAVDVIVAEDRLALAIGRGGQNVRLASDLTGWQLNIMTSAEADERNAAEDAAIRRLFMNHLNVDEETADVLVQEGFATLEEVAYVPAAELLAIEGFDEEIVDMLRNRARDAILTMAIAAEEKLGEVSDDMRNLEGVDADMLLSLAEAGITTRDDLAELAVDELIEITGVNEETAKAVILTAREHWFTEDKLEHHHHHH | soluble
3 | MAVIVKYVVERNGEEKMTFTSKAEADAYDKMLDMADELFELLGKSALIEDEAKQEELAMFLAQNKEDVLCALGAKRKPAPATGKKPKAVADSDDDESVDDAA | not soluble
4 | MFTTKGIDISGELTMMGIPEQNSKTVTPGLHYAADGFRLSGGNANFIARNMASVTGNIYADDAATITLGQPETETPTISSAYQAWAETLLYGFDTAYRGAITAPKATVSMNNAIWHLNSQSSINRLETKDSMVRFTGDNGKFTTLTVDNLTIDDSAFVLRANLAQADQ | not soluble
5 | MGPNPMKMYPIEGNKSVQFIKPILEKLENVEVGEYSYYDSKNGETFDKQILYHYPILNDKLKIGKFCSIGPGVTIIMNGANHRMDGSTYPFNLFGNGWEKHMPKLDQLPIKGDTIIGNDVWIGKDVVIMPGVKIGDGAIVAANSVVVKDIAPYMLAGGNPANEIKQRFDQDTINQLLDIKWWNWPIDIINENIDKILDNSIIREVIWKK | soluble
6 | MKYSYVARQPILDREKRTIGYELLFRDGPKNTFPEVEPELATSRLLSDHFLSTHYNTLGNKLGFVNFPHQSLVNLVPTLFPKDSLVIEVLEDCEPTQELLDAIKHLHECGYRIALDDFVPTKAWKRFLPYVSMIKFDIRLVPIEKAAIFIQALSQFNIDFLAEKVETYEEFEQALDAGFNYFQGYFFSKPEMIQKKRLNPAFLTVIQLCKEIADKPIDFNEVERLFSIDVTLSYKLLTYVNSGYTLTTKIKSFRQALIYLGEERLRRFISLVAIASVQEDKPDSLYSLAIQRARMCEILLSQMKTKYDPGQAFLTGMFSLLGSLLDQPLSDVIEDIPVDEDIKLALTSRKGVLGYLLSMCIAYEQADWELAERYCSVLKLTETQLADAFNESTEWAQELLSQTP | not soluble
7 | MSLYYKVAVSGSGKVLNVFSSEELLIGERVWLNWRNGKVKGYVLERSLSHENEATPSERDGKSFLSEGHVEIAKWVSERFFSPLGMVFDLFFPQGIDDYKEEVVVSESPFLDFDRMTLRDFLENFGEKALKEMVKKGLVRVEKNFYVKEPRPRVKKRLFLKKRISEIIREHLTVKQRMVVEYLQFNDGVPLEELLEDLEVSKSVIETLQRKNIVEIVSGDVFPKKRRILRGDFKGNISKENLFFGPTGSGKTEALFELIDVYSRKGTVLFLVPEVSVLTHTLSRLKGAFPDLKIGIYHSYLSRARKNLEWYKAASGKIDVLLGTRSAVFVPVKNLSLLIVDEEHDESFYQHTRPSYDAIVVARKISEVFDVPIILSSATPDLWTYREAKEGRIRTFNFTRRFGSLSVEVVDMRNEEKIGSFAKKTLDRIEETLEEGKRVLIYVRRKGFWGRVQCEVCGYVLKCENCDVSLVYHSDTHSLKCHQCGREYGLVESCPRCGGRLVGRTAGTERVERELKRYFPTRRIARVDREVVDNIMELESYIDKLIRGEIDILVGTRLITKSLSVPEIGLVCIMDVDSLIFNPDYSSSLRTFQLVVQALGRASRGDQGKAIIQTYNPEDTIIRKALEEDVNGFYAEELERRKALGYPPYRHLIQVAVKSKNPEVGKNSLTSLKEFLKGEEVLGPVEHWVFKLRGFYRHHLIVKTEDLERVLPKLEKALRILGIDAIVRVDPPTLEVSDEGHHHHHH | not soluble
8 | MSYYHHHHHHLESTSLYKKAGLENLYFQGVRQYKIHTNLDGTDDKVWDVTNGKVRFYQPSNLGLQSTNNIWQSNGIGVMGTRSITQPQIEFKLETFGESLEENYQLMKDFVNDILSKKFVTLEYQTEIFQVYADLALADVTKTEGYGKNGTFSEKITFDIITKWYTYENLTFDKIQNGKVIAGMSKIYGGTAPGNYKYIKGTSYTYYGESDIDRLSRWDIKEEIFSFMGILYPKLPKTPAGVRFLDDIGNEYTAIVFKTEQVQDYILINTDVNDETYQGWKGTTALNLFPVMDFERYRTRIIEKGQMELINLSKAEFKIKRKADFV | soluble
9 | MGSDKIHHHHHHMTTSYAKIEITGTLTVLTGLQIGAGDGFSAIGAVDKPVVRDPLSRLPMIPGTSLKGKVRTLLSRQYGADTETFYRKPNEDHAHIRRLFGDTEEYMTGRLVFRDTKLTNKDDLEARGAKTLTEVKFENAINRVTAKANLRQMERVIPGSEFAFSLVYEVSFGTPGEEQKASLPSSDEIIEDFNAIARGLKLLELDYLGGSGTRGYGQVKFSNLKARAAVGALDGSLLEKLNHELAAV | not soluble
10 | MSLPQSKVLTSFGTANRTPRAAETHPLTWRLRDDGQPVWLEEYQTKQGYDAVRKALGQMSPDEIVSTVKDAGLKGRGGAGFPTGVKWGLMPKDESMNIRYLLCNADEMEPNTWKDRLLMEQLPHLLIEGMIISAKALKAYRGYIFLRGEYVDAAINLRRAVEEAKAAGLLGKNILGSGFDFELFVHTGAGRYICGEETALINSLEGRRANPRAKPPFPAVSGVWGKPTCVNNVETLCNVPAIIGNGVAWYHTLALPGSEDHGTKLMGFSGKVNNPGVWELPFGITARELFEGYAGGMRSGYRLKAWQPGGAGTGFLLPEHLDAQMYTAGIGKVGTRMGTGLAMAVDDSISMVSLLRNMEEFFARESCGWCTPCRDGLPWSVKLLRSLERGEGQEGDLATLEQLCNFLGPGKTFCAHAPGAVEPLASAIKYFRSEFEAGIKGSGDNRKSIKGIQPNLLGERWAAALEHHHHHH | soluble
11 | MMTKTTTVPKNVYELAQERLRIVFNEFDNVYLSFSGGKDSGVLLSLCIDYIRRNNLKIKLGVFHMDYEIQYKMTIDYIARMLEDNKDILEVYRVCVPFRVATCTSMYQSFWRPWEDSKKDLWVRPLPENAMTKEDFPFYNTQMWDYEFQMRFASWLHEKKDAVRTCCLIGIRTQESFNRWRCIYLNRKYQMYHRYRWTSKVGNDIFNAYPIYDWKTTDVWTANGKFKWDYNKLYDYYYW | not soluble
12 | MSEGSNVLVSIILVNYNGADILPDCLNSIDKFISKDNCEILLVDNASQDNSYELVAQDFPDVKIVRLPKNYGFGAGNNAGAKIAKGKFLLLLNTDTILTTNILPHLIDLMRENPDVGIIGTKLVFPDETFQISFAYTIGIKGEYKSRKLHEYAEDKSKLNSLEQEFNTIKEVDIVVGAALFIRADLFHSVGGFDEKFFIYFEDADLCRRVQNQGYKILYTPQVSLIHIRGHSMKKNANATVLEHHHHHH | not soluble
13 | MNITKTLCLCAALSGAAGVQAMENREFVTQQDNTRVNNYQTNRPEASKRLFVSQEVERQIDHIKQLLTNAKLAWMFENCFPNTLDTTVHFDGKEDTFVYTGDIHAMWLRDSGAQVWPYVQLANKDPELKKMLAGVINRQFKCINIDPYANAFNMNSEGGEWMSDLTDMKPELHERKWEIDSLCYPIRLAYHYWKTTGDASVFSDEWLQAIANVLKTFKEQQRKDDAKGPYRFQRKTERALDTMTNDGWGNPVKPVGLIASAFRPSDDATTFQFLVPSNFFAVTSLRKAAEILNTVNRKPALAKECTALADEVEKALKKYAVCNHPKYGKIYAFEVDGFGNQLLMDDANVPSLIALPYLGDVKVTDPIYQNTRKFVWSEDNPYFFKGSAGEGIGGPHIGYDMIWPMSIMMKAFTSQNDAEIKTCIKMLMDTDAGTGFMHESFNKNDPKNFTRAWFAWQNTLFGELILKLVNEGKVDLLNSIQLEHHHHHH | soluble
